Measured values from the supplement of paper PMC10567573.
± gives the standard deviation.

Assay: protein stability index of a GFP-peptide fusion (GPS, HEK-293T) (PSI 1-6); higher = more stable
[1] = treatment: DMSO, c terminus: a fixed tail appended
[2] = treatment: MLN4924 1 uM, 8 h, c terminus: a fixed tail appended
[3] = treatment: DMSO, c terminus: native
[4] = treatment: MLN4924 1 uM, 8 h, c terminus: native
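Further: 24-mer peptide tiles fused after GFP, lentivirally expressed, FACS-sorted into six equal bins by GFP/DsRed ratio, decoded by Illumina sequencing, PSI is the read-weighted mean bin number.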

AGQLMGFFKGIDQDIERGVQSEIF [LYSMD4]
protein stability index [1]: 2.71 ± 0.33
protein stability index [2]: 2.75 ± 0.34

LNKLYPTHACREYLKNLPLLSKYC [TPH1]
protein stability index [1]: 2.41 ± 0.45
protein stability index [2]: 2.23 ± 0.46

YDPFRDAVTLRCGHNFCRGCVSRC [TRIM35]
protein stability index [1]: 2.69 ± 0.46
protein stability index [2]: 2.74 ± 0.4

PLTGFLTTVPDGPTQLRALNLTEG [TNXB]
protein stability index [1]: 3.81 ± 0.26
protein stability index [2]: 3.55 ± 0.22

ILIIQGVLSDINLKKGESECQYYI [NET1]
protein stability index [1]: 2.73 ± 0.54
protein stability index [2]: 2.67 ± 1

SARIVQVVTAEAVAVLKGEQEKEA [MAP2]
protein stability index [1]: 4.82 ± 0.11
protein stability index [2]: 4.81 ± 0.21

QEKARQLLGRLKPSHTSRTLILS [MYBL2]
protein stability index [3]: 2.12 ± 0.29
protein stability index [4]: 2.32 ± 0.042

AEMPHTETVSPLPSSMDLLIQDSP [NANOGP8]
protein stability index [1]: 5.09 ± 0.19
protein stability index [2]: 5.32 ± 0.2

DARMLDHLTKKDLRVHLKMVDSFH [PPFIA4]
protein stability index [1]: 2.48 ± 0.37
protein stability index [2]: 2.78 ± 0.44

LNGDYGENIYPYEEDKDEKSSIYE [MIA2]
protein stability index [1]: 3.78 ± 0.7
protein stability index [2]: 3.94 ± 0.72

LALYTPVGAAGSARQELLGDRPRW [ANKRD9]
protein stability index [1]: 3.28 ± 0.27
protein stability index [2]: 2.96 ± 0.21

RSSLLACILLSALGYLLLGAATNV [MFSD9]
protein stability index [1]: 2.9 ± 0.34
protein stability index [2]: 3.44 ± 0.26

KMLLMYCAKMEKDGYGMTPLLSAS [FEM1C]
protein stability index [1]: 2.56 ± 0.67
protein stability index [2]: 2.11 ± 0.46

ESGLRSLRLFQKLEENGDLYLAV [WDR41]
protein stability index [3]: 2.08 ± 0.2
protein stability index [4]: 2.16 ± 0.36

PLHLAAQRGHYRVARILIDLCSDV [RIPK4]
protein stability index [1]: 2.42 ± 0.44
protein stability index [2]: 2.31 ± 0.19

CSTNKPEGYRVSQALRENTYPFLA [FAF2]
protein stability index [1]: 2.54 ± 0.2
protein stability index [2]: 2.53 ± 0.4

CAVTFFTILLSYGVILHSLKTQSL [OR4A15]
protein stability index [1]: 3.59 ± 0.13
protein stability index [2]: 3.62 ± 0.69

EIALAPYQHLEEDMKSLKQVLEMK [MTUS2]
protein stability index [1]: 3.62 ± 0.17
protein stability index [2]: 3.65 ± 0.49

QVLSAKERHLVEIKQKLGMNLMNE [TPD52L1]
protein stability index [1]: 3.04 ± 0.12
protein stability index [2]: 3.04 ± 0.13

VVTAEAVAVLKGEQEKEAQHKDQT [MAP2]
protein stability index [1]: 5.49 ± 0.12
protein stability index [2]: 5.28 ± 0.21

SAAAATAELLKKQEELNRKAEELD [SCAMP3]
protein stability index [1]: 5.72 ± 0.16
protein stability index [2]: 5.52 ± 0.48

ILQDQEHIFAHRIYLATSSSKFYD [RHOBTB1]
protein stability index [1]: 2.15 ± 0.35
protein stability index [2]: 2.4 ± 0.16

IKDQGGAGEGLVRSANGFPYREDE [MAP2]
protein stability index [1]: 5.13 ± 0.3
protein stability index [2]: 5.18 ± 0.28

ASQFLASASSSTTCCESTQRSVSD [IRX6]
protein stability index [1]: 5.09 ± 0.22
protein stability index [2]: 5.09 ± 0.22

PPMTQAQAVSAPGILNRPPAPTAT [ZNF207]
protein stability index [1]: 5.01 ± 0.18
protein stability index [2]: 5.09 ± 0.21

LTVAKCWDPSPRGCFTLPRSEPIR [DVL3]
protein stability index [1]: 2.43 ± 0.37
protein stability index [2]: 2.62 ± 0.23

TFGNSTLALGPGESLPHRLSCLGQ [PLAGL1]
protein stability index [1]: 3.19 ± 0.18
protein stability index [2]: 3.29 ± 0.18

TALKKWMFLQLVPSWNGSLKQLLT [GMCL1]
protein stability index [1]: 2.74 ± 0.56
protein stability index [2]: 2.43 ± 0.43

DIELGCSTPLMEAAQEGHLELVKY [ANKRD17]
protein stability index [1]: 4.03 ± 0.29
protein stability index [2]: 4.18 ± 0.27

RSSHSSDSGGSDVDLDPTDGKLFP [ELF3]
protein stability index [1]: 5.34 ± 0.17
protein stability index [2]: 5.26 ± 0.32

SELTRLIQRIRSEIENVKKQASNL [KRT71]
protein stability index [1]: 2.09 ± 0.068
protein stability index [2]: 2.22 ± 0.21

RAISTSVCVRAHESVVKSEDFSLP [COX4I1]
protein stability index [1]: 3.9 ± 0.17
protein stability index [2]: 3.79 ± 0.34

VAIFGPPNTYYEGGYFKARLKFPI [CDC34]
protein stability index [1]: 2.24 ± 0.41
protein stability index [2]: 2.58 ± 0.3

KKAWDDLKKYLEPRCPRMVLSLKE [FBXO3]
protein stability index [1]: 2.78 ± 0.26
protein stability index [2]: 2.86 ± 0.17

DTCRTQLVWLVRELVKSGVLGADG [INTS3]
protein stability index [1]: 2.51 ± 0.54
protein stability index [2]: 2.37 ± 0.24

FGGMKSSGIGREGAKDSYDFFTEI [ALDH8A1]
protein stability index [1]: 2.22 ± 0.66
protein stability index [2]: 2.52 ± 0.27

EGLELTEQTFSPAKSLSFRKGELV [ADD1]
protein stability index [1]: 4 ± 0.39
protein stability index [2]: 4.2 ± 0.34

LFTIPLLYRQHQAQIDQYVGLVTN [RTN2]
protein stability index [1]: 2.81 ± 0.57
protein stability index [2]: 2.95 ± 0.48

PVIPAAALAGYTGSGPIQLWQFLL [ETS1]
protein stability index [1]: 2.68 ± 0.26
protein stability index [2]: 2.68 ± 0.28

ISGGVHNGEYVPWLYCYDPVMDVW [KLHL14]
protein stability index [1]: 2.32 ± 0.33
protein stability index [2]: 2.59 ± 0.73

MPVICGPEENYPSLQMSSAEMPHT [NANOGP8]
protein stability index [1]: 4.47 ± 0.32
protein stability index [2]: 4.39 ± 0.24

RLIKELAKYEYMEEQVILTEKDLL [SAT1]
protein stability index [1]: 2.34 ± 0.34
protein stability index [2]: 2.18 ± 0.25

LSGVSCFVMFLCLADYLVPILAPR [ARL6IP1]
protein stability index [1]: 3.5 ± 0.071
protein stability index [2]: 3.37 ± 0.44

LANPVLESTPVGTVVGLFNVRDRD [PCDHGC5]
protein stability index [1]: 4.08 ± 0.35
protein stability index [2]: 4.06 ± 0.34

ASPVPESSLTADLLSVDAFAAPSP [SNAP91]
protein stability index [1]: 4.88 ± 0.28
protein stability index [2]: 4.97 ± 0.15

LFQFSNCSQGQQLATFSSDWEIQE [CCDC3]
protein stability index [1]: 3.12 ± 0.45
protein stability index [2]: 2.94 ± 0.33

SAMLLVTLGKVLKVIVVMRSLFID [MED27]
protein stability index [1]: 2.9 ± 0.45
protein stability index [2]: 2.85 ± 0.73

CPLCTSDRGSCVSTTEGIQLAKEL [RHOBTB3]
protein stability index [1]: 3.23 ± 0.29
protein stability index [2]: 3.58 ± 0.38

PETLTNLRKGYLFMYNLVQFLGFS [HACD3]
protein stability index [1]: 2.34 ± 0.56
protein stability index [2]: 2.04 ± 0.34

CVDATRETNRLGRLINHSKCGNCQ [KMT5A]
protein stability index [1]: 3.48 ± 0.41
protein stability index [2]: 3.84 ± 0.27

AKREETKAMESQRAYRFVQGKDWG [SPOPL]
protein stability index [1]: 3.09 ± 0.61
protein stability index [2]: 3.59 ± 0.37

ASAEAPGDSGERSEGEAMEICSEP [ZNF511]
protein stability index [1]: 5.54 ± 0.21
protein stability index [2]: 5.47 ± 0.29

ATEWQKAGAPPPSGSAVSTAPQQK [SRPK2]
protein stability index [1]: 5.42 ± 0.14
protein stability index [2]: 5.18 ± 0.21

KSHLIFPQPNYADTLISQESCEKN [PCDHGA10]
protein stability index [1]: 4.32 ± 0.17
protein stability index [2]: 4.32 ± 0.21

FGRLVANVLKSYIGLGHIYSGTFA [CLCN6]
protein stability index [1]: 2.94 ± 0.42
protein stability index [2]: 2.79 ± 0.33

ARDVQKIIGDYFSDQDPRVRTAAI [INTS4]
protein stability index [1]: 3.03 ± 0.29
protein stability index [2]: 3.15 ± 0.21

PLCMLLLIDHLALRARNYEYLIRL [TCF25]
protein stability index [1]: 3.43 ± 1.1
protein stability index [2]: 2.92 ± 0.55

NDFCSFYNILKTCRGHTLERSVFS [CARM1]
protein stability index [1]: 2.78 ± 0.6
protein stability index [2]: 2.4 ± 0.3

EDPVPGMLFFLPPGQHLSDYSQLN [FBXO34]
protein stability index [1]: 3.03 ± 0.35
protein stability index [2]: 3.11 ± 0.38

PARDYVVLRTWRTNLPKGACALLL [DLC1]
protein stability index [1]: 2.47 ± 1.3
protein stability index [2]: 2.22 ± 0.4

LLTSPRAINNLVLQGCSSIGLRLV [KLHL14]
protein stability index [1]: 2.92 ± 0.53
protein stability index [2]: 2.74 ± 0.69

AKNFHVKAVMKTSVLLSWEIPENY [PTPRD]
protein stability index [1]: 2.89 ± 0.27

PSEICDRLVNEYVELVNAACNFEP [ZER1]
protein stability index [1]: 3.15 ± 0.3
protein stability index [2]: 3.17 ± 0.23

FAIPVGSGLGYIAGSKVKDMAGDW [SPNS1]
protein stability index [1]: 2.35 ± 0.28
protein stability index [2]: 2.21 ± 0.44

PGDPSKDRAAKRLSLESEGAGEGA [TPPP]
protein stability index [1]: 5.47 ± 0.22
protein stability index [2]: 5.33 ± 0.38

PRPGTGQSRSFRILAHLTGTEFMQ [PDLIM7]
protein stability index [1]: 2.47 ± 0.046
protein stability index [2]: 2.83 ± 0.27

SQVSMWDQRWQDHQPLLPITDVP [APBB1IP]
protein stability index [3]: 2.63 ± 0.55
protein stability index [4]: 3.22 ± 0.51

GLAANGALQRLDLRNNQISHKGAE [LRRC45]
protein stability index [1]: 4.23 ± 0.4
protein stability index [2]: 4.57 ± 0.18

GCCKRRYLQKIEEFAEMVEREEED [KCNG1]
protein stability index [1]: 3.57 ± 0.23
protein stability index [2]: 4 ± 0.53

YSSEMKTEDELRVRHLEEENRGIV [AUH]
protein stability index [1]: 4.78 ± 1
protein stability index [2]: 5.35 ± 0.86

KADIGAPSGFKHVSHVGWDPQNGF [WAS]
protein stability index [1]: 3.2 ± 0.37
protein stability index [2]: 3.33 ± 0.089

SLLRRIKGKLFTWNILKTIALGQM [SLC35F2]
protein stability index [1]: 2.31 ± 0.63
protein stability index [2]: 2.38 ± 0.23

LTEDMYAQDSIELLTTSGIQFKKH [CNOT7]
protein stability index [1]: 3.93 ± 0.23
protein stability index [2]: 4.09 ± 0.32

QQAVEQIAKAEETHSSLSQELQAR [CCDC89]
protein stability index [1]: 5.2 ± 0.25
protein stability index [2]: 5.23 ± 0.28

EERAAPVLSCEAATQTERRLDLAA [FAM189A2]
protein stability index [1]: 5.05 ± 0.28
protein stability index [2]: 4.99 ± 0.12

QVVGQVNVEMDATPGIDLTRVLAE [KRT13]
protein stability index [1]: 4.07 ± 0.32
protein stability index [2]: 4.15 ± 0.2

TGTKKVTRILDGGNPFLDVPQALS [PSD2]
protein stability index [1]: 3.24 ± 0.36
protein stability index [2]: 3.4 ± 0.12

EFHQRRSEIIQITTGSKELDKLLQ [RAD51]
protein stability index [1]: 2.93 ± 0.2
protein stability index [2]: 3.03 ± 0.51

SCSSDGGIAVWNMDVSREEAPQWL [WDFY1]
protein stability index [1]: 3.07 ± 0.09
protein stability index [2]: 3.08 ± 0.23

ETQTLTGWSKGFIGMHREMQVNPI [RHOBTB1]
protein stability index [1]: 2.89 ± 0.26
protein stability index [2]: 3.12 ± 0.23

DGKLLWEQELYNNFVYNSPRGYFH [WASL]
protein stability index [1]: 2.07 ± 0.24
protein stability index [2]: 2.27 ± 0.41

LLKTEALKRQAQEEAKGALLGTSG [DAPK3]
protein stability index [1]: 4.89 ± 0.15
protein stability index [2]: 4.47 ± 0.12

SEPHYGHAGTVYGGVMYISGGITH [KLHL13]
protein stability index [1]: 2.17 ± 0.47
protein stability index [2]: 2.14 ± 0.17

SWVTDMCKVGASSDPCGQLRPTLL [PNLIPRP1]
protein stability index [1]: 2.14 ± 0.38
protein stability index [2]: 2.34 ± 0.41

MLDFLSERPWIKRMIFKLFSQETV [APMAP]
protein stability index [1]: 1.98 ± 0.3
protein stability index [2]: 1.82 ± 0.26

CIENNIDLQVNRNFSLATNTKYSV [R3HDM1]
protein stability index [1]: 2.59 ± 0.24
protein stability index [2]: 2.31 ± 0.43

TGELETLKERCAQDACQAQAREKE [CCDC89]
protein stability index [1]: 5.46 ± 0.31
protein stability index [2]: 5.39 ± 0.2

HQLLGLFPSTSYNARLQAMWGQSL [TNXB]
protein stability index [1]: 2.11 ± 0.35
protein stability index [2]: 2.08 ± 0.23

PHAMTIQELVDYVNARQKQGIYEE [PTPN9]
protein stability index [1]: 3.23 ± 0.21
protein stability index [2]: 3.25 ± 0.41
